Laboratory results taken from patent US20080207488A1 (published 2008).
Ends that are not written are not given here.

B1: abciximab (ReoPro) (Fab, V domains shown)
VH: EVQLQQSGTVLARPGASVKMSCEASGYTFTNYWMHWVKQRPGQGLEWIGAIYPGNSDTSYIQKFKGKAKLTAVTSTTSVYMELSSLTNEDSAVYYCTLYDGYYVFAYWGQGTLVTVSA
VL: EIVLTQSPVTLSVTPGDSVSLSCRASRDISNNLHWFQQTSHESPRLLIKYASQSMSGIPSRFSGSGSGTDFTLSINSVETEDFGMYFCQQTNSWPYTFGGGTKLEIK
B2: endostatin (EntreMed) (other, UniProt P39060 1572-1754, looked up)
chain: HSHRDFQPVLHLVALNSPLSGGMRGIRGADFQCFQQARAVGLAGTFRAFLSSRLQDLYSIVRRADRAAVPIVNLKDELLFPSWEALFSGSEGPLKPGARIFSFDGKDVLRHPTWPQKSVWHGSDPNGRRLTESYCETWRTEAPSATGQASSLLGGRLLGQSAASCHHAYIVLCIENSFMTASK
notes: also called protein therapeutic endostatin
B3: tissue-type plasminogen activator (tPA) (enzyme, human, UniProt P00750 36-562, looked up)
chain: SYQVICRDEKTQMIYQQHQSWLRPVLRSNRVEYCWCNSGRAQCHSVPVKSCSEPRCFNGGTCQQALYFSDFVCQCPEGFAGKCCEIDTRATCYEDQGISYRGTWSTAESGAECTNWNSSALAQKPYSGRRPDAIRLGLGNHNYCRNPDRDSKPWCYVFKAGKYSSEFCSTPACSEGNSDCYFGNGSAYRGTHSLTESGASCLPWNSMILIGKVYTAQNPSAQALGLGKHNYCRNPDGDAKPWCHVLKNRRLTWEYCDVPSCSTCGLRQYSQPQFRIKGGLFADIASHPWQAAIFAKHRRSPGERFLCGGILISSCWILSAAHCFQERFPPHHLTVILGRTYRVVPGEEEQKFEVEKYIVHKEFDDDTYDNDIALLQLKSDSSRCAQESSVVRTVCLPPADLQLPDWTECELSGYGKHEALSPFYSERLKEAHVRLYPSSRCTSQHLLNRTVTDNMLCAGDTRSGGPQANLHDACQGDSGGPLVCLNDGRMTLVGIISWGLGCGQKDVPGVYTKVTNYLDWIRDNMRP
notes: Full-length recombinant tPA; also called Actilyse; Alteplase
B4: recombinant human β2-glycoprotein I (other, UniProt P02749 20-345, looked up)
chain: GRTCPKPDDLPFSTVVPLKTFYEPGEEITYSCKPGYVSRGGMRKFICPLTGLWPINTLKCTPRVCPFAGILENGAVRYTTFEYPNTISFSCNTGFYLNGADSAKCTEEGKWSPELPVCAPIICPPPSIPTFATLRVYKPSAGNNSLYRDTAVFECLPQHAMFGNDTITCTTHGNWTKLPECREVKCPFPSRPDNGFVNYPAKPTLYYKDKATFGCHDGYSLDGPEEIECTKLGNWSAMPSCKASCKVPVKKATVVYQGERVKIQEKFKNGMLHGDKVSFFCKNKEKKCSYTEDAQCIDGTIEVPKCFKEHSSLAFWKTDASDVKPC
notes: also called recombinant β2GPI; rec. β2GPI
B5: chemically synthesized F domain of hepatocyte growth factor activator (HGFA F) (other)
chain: EKCFDETRYEYLEGGDRWARVRQGHVEQCECFGGRTWCEGTK
modifications: added carboxy-terminal lysine residue is acetylated
notes: domain: F domain; Made by native chemical ligation of two peptides; also called HGFA F domain
B6: chemically synthesized F domain of tPA (tPA F) (other, human)
chain: VICRDEKTQMIYQQHQSWLRPVLRSNRVEYCWCNSGRAQCHSVK
modifications: cysteine pairing not given here; also: added C-terminal Lys acetylated or biotinylated
notes: domain: F domain; Immobilized on the second Biacore chip; also called tPA F domain

How the values were obtained:
[1] = molecular target: B3; assay: cell-based or functional assay
[2] = molecular target: B3; assay: ELISA, therapeutic coated, tPA concentration series, one-site binding fit
Protocol: (§1) Nunc Immobilizer plates (Nalge Nunc, #436013, Rochester, N.Y., USA) were coated with 50 μL containing 5 μg/mL of sample protein (unless indicated otherwise) in 100 mM NaHCO₃, pH 9.6, 0.05% m/v NaN₃ for 1 hour at room temperature. Plates were washed twice with Tris buffered saline pH 7.2 containing 0.1% Tween20 (TBST) and blocked with PBS containing 1% Tween20 for 1 hour at room temperature. […] Plates were washed five times with TBST and incubated with peroxidase labeled anti-mouse immunoglobulins (RAMPO; DAKOCytomation, Glostrup, Denmark) diluted 1:3000 in PBST for 30 minutes at room temperature. Plates were washed five times with PBS 0.1% Tween20, and stained with 100 μL/well of tetramethyl-benzidine (TMB) substrate (Biosource Europe, Nivelles, Belgium). The reaction was terminated with 50 μL/well of 2 M H₂SO₄ and substrate conversion was read at 450 nm on a Spectramax340 microplate reader. Curves were fitted with a one-site binding model (GraphPad Prism version 4.02 for Windows, Graphpad Software, CA, USA) from which Kd and Bmax were determined.

[3] = molecular target: T1, fibronectin F4-5 domains with carboxy-terminal His6-tag, expressed in S. cerevisiae (Fn F4-5-His6) (human, UniProt P02751 182-276); assay: SPR (Biacore), Fn F4-5 on CM5 chip, concentration of ligand at half maximum binding
T1 construct: range 182-276; also called Fn F4-5 doublet
T1 sequence (P02751 other isoform, or with tags, fused parts or gaps limits assumed): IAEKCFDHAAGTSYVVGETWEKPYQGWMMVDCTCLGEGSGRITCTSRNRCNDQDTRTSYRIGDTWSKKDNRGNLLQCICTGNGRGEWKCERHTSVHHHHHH
Protocol: (§2) Now, the running buffer was 10 mM HEPES pH 7.4, 140 mM NaCl, 1.5 mM CaCl₂, 10 mM εACA, 0.05% Tween-20. Regeneration buffer was running buffer supplemented with 1 M NaCl.

[4] = molecular target: T2, advanced glycation end-product modified bovine serum albumin (albumin-AGE) (bovine, UniProt P02769 25-607, glycated (advanced glycation end-products; 1 M glucose-6-phosphate, 37 °C, up to 23 weeks); sites not stated); assay: SPR (Biacore), immobilized tPA
T2 construct: Misfolded, cross-β structure containing preparation; also called BSA-AGE; glycated BSA
T2 sequence (P02769 25-607 limits assumed): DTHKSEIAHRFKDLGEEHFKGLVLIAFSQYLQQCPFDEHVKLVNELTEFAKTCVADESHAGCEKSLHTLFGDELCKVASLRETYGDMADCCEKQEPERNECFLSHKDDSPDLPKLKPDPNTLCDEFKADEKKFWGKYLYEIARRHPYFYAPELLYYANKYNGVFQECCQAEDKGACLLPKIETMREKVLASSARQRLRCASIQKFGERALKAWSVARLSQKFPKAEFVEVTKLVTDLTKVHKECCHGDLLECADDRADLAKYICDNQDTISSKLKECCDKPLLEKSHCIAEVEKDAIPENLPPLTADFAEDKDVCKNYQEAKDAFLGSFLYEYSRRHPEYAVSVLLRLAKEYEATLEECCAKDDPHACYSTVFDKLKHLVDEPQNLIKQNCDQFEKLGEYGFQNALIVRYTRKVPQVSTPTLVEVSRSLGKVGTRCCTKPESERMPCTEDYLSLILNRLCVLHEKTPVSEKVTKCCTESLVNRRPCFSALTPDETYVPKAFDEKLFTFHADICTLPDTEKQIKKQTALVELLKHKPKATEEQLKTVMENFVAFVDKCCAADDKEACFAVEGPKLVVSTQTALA
Protocol: EDC, NHS and ethanolamine hydrochloride were obtained from Biacore. […] The flow rate was 10 μl min.⁻¹, the injection time was 120″. The running buffer during immobilization was 10 mM HEPES pH 7.4, 140 mM NaCl. Buffers were filtrated on a 0.22 μm filter (white GSWP, 47 mm, Millipore) and degassed at room temperature. For subsequent binding experiments, the running buffer was 10 mM HEPES pH 7.4, 140 mM NaCl, 1.5 mM CaCl₂, 10 mM εACA, 0.005% Tween-20. […] After each injection of protein, the chip was regenerated with 0.1 M H₃PO₄ pH 1.0.

[5] = molecular target: T3, recombinant human Zn2+-chelated insulin (Monotard) (human, UniProt P01308 90-110; P01308 25-54); assay: ELISA, therapeutic coated, tPA concentration series, one-site binding fit
T3 construct: mature; Zinc suspension; also called zinc-insulin; zinc-chelated insulin
Protocol: as §1

human albumin (Cealb) = molecular target: T4, human albumin (Cealb) (human, UniProt P02768 25-609); assay: as above
T4 construct: mature
Protocol: as §1

[6] = molecular target: T5, rapid acting human insulin analogue (NovoRapid Flexpen) (human, UniProt P01308 90-110; P01308 25-54); assay: as above
T5 construct: mature; also called Insulin Aspart; Novo Rapid insulin
Protocol: as §1

abciximab (ReoPro) = molecular target: B1; assay: as above
Protocol: as §1

[7] = molecular target: B3; assay: ELISA, tPA coated, β2GPI concentration series, antibody 2B2
Protocol: (§3) Binding of β₂GPI was assessed with monoclonal antibody 2B2¹³.
(§4) C. […] D. Western blot incubated with anti-human factor XII antibody. […] Eluted fractions are analyzed on Western blot after SDS-PA electrophoresis. […] The molecular mass of factor XII is 80 kDa. […] Anti-β₂GPI auto-antibodies were purified from plasma of patients with the auto-immune disease Anti-phospholipid syndrome. […] Signals are corrected for background fluorescence of CL, DXS, ThT and buffer.

[8] = molecular target: B3; assay: ELISA, tPA immobilized, β2GPI concentration series
Protocol: as §3, §4

[9] = molecular target: T6, factor XII purified from human plasma (human, UniProt P00748 20-615); assay: ELISA, factor XII coated, β2GPI concentration series, antibody 2B2
T6 construct: mature; also called FXII
T6 sequence (looked up): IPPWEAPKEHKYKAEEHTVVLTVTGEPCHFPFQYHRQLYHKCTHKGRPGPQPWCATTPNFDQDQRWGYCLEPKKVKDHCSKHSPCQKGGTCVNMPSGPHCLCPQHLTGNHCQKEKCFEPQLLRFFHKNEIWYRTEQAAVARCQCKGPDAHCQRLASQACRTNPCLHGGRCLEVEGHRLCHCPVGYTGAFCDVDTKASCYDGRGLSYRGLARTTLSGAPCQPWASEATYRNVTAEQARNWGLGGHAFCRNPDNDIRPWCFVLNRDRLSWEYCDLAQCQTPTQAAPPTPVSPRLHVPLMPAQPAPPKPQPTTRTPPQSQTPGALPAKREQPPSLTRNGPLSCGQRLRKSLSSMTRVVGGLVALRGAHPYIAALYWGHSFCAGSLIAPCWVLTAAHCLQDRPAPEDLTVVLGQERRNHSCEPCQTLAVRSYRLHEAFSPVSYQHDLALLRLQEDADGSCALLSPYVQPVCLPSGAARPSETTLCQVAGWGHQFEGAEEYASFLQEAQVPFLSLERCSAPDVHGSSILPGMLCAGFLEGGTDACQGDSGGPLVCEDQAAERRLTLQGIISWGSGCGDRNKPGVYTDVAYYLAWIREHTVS
Protocol: as §3, §4

[10] = molecular target: T6, factor XII purified from human plasma; assay: ELISA, factor XII immobilized, β2GPI concentration series
Protocol: as §3, §4

[11] = molecular target: B4; assay: SPR (Biacore), HGFA F immobilized on CM5 chip
Protocol: as §2

endostatin (EntreMed) [12] = molecular target: B2; assay: SPR (Biacore), HGFA F immobilized on CM5 chip
Protocol: as §2

[13] = molecular target: B4; assay: SPR (Biacore), tPA F immobilized on CM5 chip
Protocol: as §2

endostatin (EntreMed) [14] = molecular target: B2; assay: SPR (Biacore), tPA F immobilized on CM5 chip
Protocol: as §2

Binder: B1
- tPA activation, Max. Activation (%) [1]: 0%
- Kd [2]: 216 nM

Binder: B2
- EC50 [3]: 800 nM

Binder: B3
- binding result [4]: binds
- Bmax (OD450 nm) [5]: 0.756 OD450 nm
- Bmax (OD450 nm) (human albumin (Cealb)): 1.23 OD450 nm
- Bmax (OD450 nm) [6]: 3.62 OD450 nm
- Bmax (OD450 nm) (abciximab (ReoPro)): 0.533 OD450 nm

Binder: B4
- Kd [7]: 51 nM
- Kd [8]: 2.3 µg/mL
- EC50 [3]: 165 nM
- Kd [9]: 20 nM
- Kd [10]: 0.9 µg/mL

Binder: B5
- binding result [11]: no binding (tested: 0-300 nM)
- binding result (endostatin (EntreMed) [12]): no binding (tested: 0-800 nM)

Binder: B6
- binding result [13]: no binding (tested: 0-300 nM)
- binding result (endostatin (EntreMed) [14]): no binding (tested: 0-800 nM)
